Reference: patent publication US20150272076

Key:
Assay in all cases: cell_activity
[1] = system: FucT2_T01 TALEN left monomer (synthetic (TAL effector-FokI-type nuclease)?); details: pair activity on full site SEQ 67, yeast 37C; 0.8 at 30C
[2] = system: FucT1_T04/FucT2_T04 TALEN left monomer (synthetic (TAL effector-FokI-type nuclease)?); details: pair activity on SEQ 70 and SEQ 71, yeast 37C; 0.5 at 30C
[3] = system: FucT1_T02 TALEN left monomer (synthetic (TAL effector-FokI-type nuclease)?)
[4] = system: FucT2_T02 TALEN left monomer (synthetic (TAL effector-FokI-type nuclease)?)
[5] = system: FucT2_T01 TALEN right monomer (synthetic (TAL effector-FokI-type nuclease)?); details: pair activity on full site SEQ 67, yeast 37C; 0.8 at 30C
[6] = system: XylT_T03 TALEN right monomer (synthetic (TAL effector-FokI-type nuclease)?); details: pair activity on full site SEQ 64, yeast 37C; 0.7 at 30C; protoplast NHEJ 34.4% XylT1, 28.2% XylT2 (Table 3)
[7] = system: FucT1_T02/FucT2_T02 TALEN right monomer (synthetic (TAL effector-FokI-type nuclease)?); details: pair activity with either left monomer (SEQ 68 or 69), yeast 37C; 0.7 at 30C
[8] = system: XylT_T03 TALEN left monomer (synthetic (TAL effector-FokI-type nuclease)?); details: pair activity on full site SEQ 64, yeast 37C; 0.7 at 30C; protoplast NHEJ 34.4% XylT1, 28.2% XylT2 (Table 3)
[9] = system: FucT1_T01 TALEN left monomer (synthetic (TAL effector-FokI-type nuclease)?); details: pair activity on full site SEQ 66, yeast 37C; 0.6 at 30C
[10] = system: XylT_T04 TALEN left monomer (synthetic (TAL effector-FokI-type nuclease)?); details: pair activity on full site SEQ 65, yeast 37C; 0.9 at 30C; protoplast NHEJ 73.8% XylT1, 63.9% XylT2 (Table 3)
[11] = system: FucT1_T01 TALEN right monomer (synthetic (TAL effector-FokI-type nuclease)?); details: pair activity on full site SEQ 66, yeast 37C; 0.6 at 30C
[12] = system: FucT1_T04/FucT2_T04 TALEN right monomer (synthetic (TAL effector-FokI-type nuclease)?); details: pair activity on SEQ 70 and SEQ 71, yeast 37C; 0.5 at 30C

## TGAGATCGTCGTCAAAT (double strand) [FucT2_T01 target 1 (SEQ 55)]
[1]
  activity (relative to I-SceI): 0.9

## TTGCCTCTGTTCGTTGC (double strand) [FucT_T04 target 1 (SEQ 62)]
[2]
  activity (relative to I-SceI): 0.6

## TTCAAACGCACCCAATA (double strand) [FucT1_T02 target 1 (SEQ 57)]
[3]; pair activity on full site SEQ 68, yeast 37C, 0.7 at 30C, protoplast NHEJ 39.2% FucT1 (Table 3)
  activity (relative to I-SceI): 0.9
[4]; FucT2_T02 pair on endogenous FucT1 (1-bp mismatch in left site), N. benthamiana protoplasts, control 0.79%
  activity: 46.5 % NHEJ

## GATAAACAATGGCGCAA (double strand) [FucT2_T01 target 2 (SEQ 56, printed as top strand)]
[5]
  activity (relative to I-SceI): 0.9

## ATCACTCTCTATCTCTA (double strand) [XylT_T03 target 2 (SEQ 50, printed as top strand)]
[6]
  activity (relative to I-SceI): 0.9

## CTCTGTTCGTTGCCCTA (double strand) [FucT_T02 target 2 (SEQ 58, printed as top strand)]
[7]
  activity (relative to I-SceI): 0.9

## TTCTTGTTTCTCTCTTC (double strand) [XylT_T03 target 1 (SEQ 49)]
[8]
  activity (relative to I-SceI): 0.9

## TTCAAACGCACCCGATA (double strand) [FucT2_T02 target 1 (SEQ 59)]
[3]; FucT1_T02 pair on endogenous FucT2 (1-bp mismatch in left site), N. benthamiana protoplasts, control 0.14%
  activity: 24.7 % NHEJ
[4]; pair activity on full site SEQ 69, yeast 37C, 0.7 at 30C, protoplast NHEJ 45.0% FucT2 (Table 3)
  activity (relative to I-SceI): 0.9

## TGAGATCGGCGTCAAAT (double strand) [FucT1_T01 target 1 (SEQ 53)]
[9]
  activity (relative to I-SceI): 0.8

## TCTCTTCGCTCTCAACT (double strand) [XylT_T04 target 1 (SEQ 51)]
[10]
  activity (relative to I-SceI): 0.9

## AATAAGCAATGGCGCAA (double strand) [FucT1_T01 target 2 (SEQ 54, printed as top strand)]
[11]
  activity (relative to I-SceI): 0.8

## TTTCTGGTTCGACTCGA (double strand) [FucT_T04 target 2 (SEQ 63, printed as top strand)]
[12]
  activity (relative to I-SceI): 0.6
